Measurements reported in patent publication US20240270853A1 (Chugai, published 2024).

Legend:
[1] = target: T1, full length mouse DDR2 (stably expressed on Ba/F3 cell line) (mouse, UniProt Q62371 22-854); assay: flow cytometry on Ba/F3 cells expressing full length mouse DDR2, one-arm format
T1 construct: also called moDDR2
T1 sequence: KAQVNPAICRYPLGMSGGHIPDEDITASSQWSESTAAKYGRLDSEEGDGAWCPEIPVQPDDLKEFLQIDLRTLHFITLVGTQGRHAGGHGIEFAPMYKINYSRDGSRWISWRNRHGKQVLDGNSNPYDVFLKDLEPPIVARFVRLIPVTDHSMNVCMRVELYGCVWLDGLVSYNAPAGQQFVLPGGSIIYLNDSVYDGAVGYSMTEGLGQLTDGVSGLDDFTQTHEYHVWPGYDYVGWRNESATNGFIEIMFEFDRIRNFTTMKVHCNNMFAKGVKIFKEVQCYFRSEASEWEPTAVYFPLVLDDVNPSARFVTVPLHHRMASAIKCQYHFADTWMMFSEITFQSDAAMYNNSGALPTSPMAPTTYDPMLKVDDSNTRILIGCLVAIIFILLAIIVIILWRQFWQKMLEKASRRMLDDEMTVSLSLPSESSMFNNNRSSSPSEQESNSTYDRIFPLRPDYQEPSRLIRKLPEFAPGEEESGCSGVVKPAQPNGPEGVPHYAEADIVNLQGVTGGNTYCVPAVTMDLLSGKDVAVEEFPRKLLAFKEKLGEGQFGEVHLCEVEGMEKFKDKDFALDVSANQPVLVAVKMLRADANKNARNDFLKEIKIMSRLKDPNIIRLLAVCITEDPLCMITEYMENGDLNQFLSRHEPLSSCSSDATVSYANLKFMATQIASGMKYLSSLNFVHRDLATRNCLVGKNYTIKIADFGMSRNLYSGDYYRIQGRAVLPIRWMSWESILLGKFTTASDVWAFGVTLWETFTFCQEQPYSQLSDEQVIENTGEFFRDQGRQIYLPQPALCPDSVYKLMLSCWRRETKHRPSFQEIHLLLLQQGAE
Protocol: (§1) Mean Fluorescent Intensity (MFI) of each antibody was measured by flow cytometry using Ba/F3 cell line that stably expresses full length mouse DDR2. Names under the horizontal axis are names of the tested antibodies. IC17dK is an anti-KLH antibody used as a negative control.
To determine antibody binding to mouse DDR2, flow cytometry analysis was carried out by using mouse-DDR2-stably-expressing Ba/F3 cell line. One-arm format antibodies, which contains one antibody variable region in each molecule, were prepared to evaluate the binding by affinity mode.

[2] = target: T2, mouse DDR2 delta DSL-EJXM (stably expressed on Ba/F3 cell line) (mouse, UniProt Q62371 22-854); assay: flow cytometry on Ba/F3 cells expressing mouse DDR2 delta DSL-EJXM
T2 construct: Full length mouse DDR2 with Gln201-Val393 deleted; also called mouse DDR2 fragment with DSL domain and EJXM region (Gln201-Val393) deleted
T2 sequence: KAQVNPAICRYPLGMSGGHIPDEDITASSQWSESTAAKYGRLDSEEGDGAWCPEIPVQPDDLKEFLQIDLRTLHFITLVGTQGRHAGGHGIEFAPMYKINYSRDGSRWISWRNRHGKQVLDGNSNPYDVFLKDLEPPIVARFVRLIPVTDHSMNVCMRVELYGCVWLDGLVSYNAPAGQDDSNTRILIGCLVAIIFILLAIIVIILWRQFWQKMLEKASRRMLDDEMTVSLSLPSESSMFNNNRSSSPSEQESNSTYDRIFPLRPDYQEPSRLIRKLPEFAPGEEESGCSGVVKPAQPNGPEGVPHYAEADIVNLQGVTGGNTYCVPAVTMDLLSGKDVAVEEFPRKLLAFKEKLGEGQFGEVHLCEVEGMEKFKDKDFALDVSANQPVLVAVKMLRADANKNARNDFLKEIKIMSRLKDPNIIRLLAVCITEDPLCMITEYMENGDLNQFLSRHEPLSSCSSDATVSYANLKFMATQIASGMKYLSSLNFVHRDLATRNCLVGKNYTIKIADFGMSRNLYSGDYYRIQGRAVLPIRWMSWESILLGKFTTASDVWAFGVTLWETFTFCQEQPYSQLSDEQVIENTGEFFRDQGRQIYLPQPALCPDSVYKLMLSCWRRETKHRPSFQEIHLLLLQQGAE
Protocol: as §1, with “expresses mouse DDR2 fragment in which Discoidin-like (DSL) domain and extracellular juxtamembrane (EJXM) region were deleted from” for “expresses”, “DDR2 (mouse DDR2 delta DSL-EJXM).” for “DDR2.”
To map more detailed binding epitope of anti-DDR2 antibodies, fragment of mouse DDR2, in which discoidin-like (DSL) domain and extracellular juxtamembrane (EJXM) region (Gln201-Val393) are deleted from full length mouse DDR2 (mouse DDR2 delta DSL-EJXM) was made. Mouse DDR2 delta DSL-EJXM stably-expressing Ba/F3 cell line was prepared. Binding of the antibodies to this cell line was measured by flow cytometry and MFI value was acquired. Epitope of antibodies which can bind to full length mouse DDR2 but not to mouse DDR2 delta DSL-EJXM would be DSL-EJXM region. Epitope of antibodies which can bind to both full length mouse DDR2 and mouse DDR2 delta DSL-EJXM would be discoidin (DS) domain. In Table2, “Yes” means that tested antibody can bind to the cell line and “No” means that antibody cannot bind to the cell line.

Binder	binding result [1]	binding result [2]
DAB0009 (antibody, V domains shown, Variable regions from immunized rabbits) VH: QSVEESGGRLVTPGTPLTLTCAVSGFSLNSHVMGWVRQAPGRGLECIGIIAVSGDIYYANWAKGRFTISKTSTTVDLRITSPTTEDTATYFCGSPTVINNNNLWGQGTLVTVSS VL: AQVLTQTASPVSAAVGGTVTINCQSSQNVYGNNYLSWFQQKPGQPPKLLIYSTSTLASGVSSRFKGSGSGTQFTLTISDLECADAATYYCLGGYDCNIVDCRAFGGGTKVEIK	binds	no binding
DAB0052 (antibody, V domains shown, Variable regions from immunized rabbits) VH: QSVEESGGRLVTPGTPLTLTCTVSGFSLNRYTGIWVRQAPGKGLEWIGIISSDDRTWYASWAKGRFTISKTSTTVDLKITSPTIEDTATYFCARDVGGDSWFWGLWGQGTLVTVSS VL: DIVMTQTPASVEAAVGGTVTIKCQASQSISSWLAWYQQKPGQPPKLLIYYASTLASGVPSRFSGSGSGTEFTLTISDLECADAATYYCQSNYYSSSNSNYGHAFGGGTKVEIK	binds	no binding
DAB0071 (antibody, V domains shown, Variable regions from immunized rabbits) VH: QSLEESGGRLVTPGGSLTLTCTASGFSLSAYYMQWVRQAPGKGLEWIGWINTGGSAYYPSWARGRFTISKTSTTVDLKITSPTTEDTATYFCARSDASVHQFNLWGQGTLVTVSS VL: DVVMTQTPASVEAAVGGTVTIKCQASESIGNALAWYQQRPGQPPKLLIYYASTLESGVPSRFKGSGSGTEFTLTISDLECADAATYYCQCTYGSGSSRGNAFGGGTKVEIK	binds	no binding
